The test system of series [1] is Saccharomyces cerevisiae. The series is described as follows: protein stability index of tFT-peptide fusion (C-terminal peptide) (PSI (0-1 scale)); higher = more stable (slower turnover). The procedure:
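MPS profiling in S. cerevisiae of the tFT-X12 degron library: putative degron peptides plus stable controls, 12 aa, fused to the C-terminus of a sfGFP-mCherry timer. Cells are FACS-sorted into 8 mCherry/sfGFP bins and deep-sequenced. PSI runs from 0 (unstable) to 1 (stable). Backgrounds are wild type, das1Δ and doa10Δ at 30 °C, and wild type, das1Δ, cdc34-1 and cdc53-1 at 37 °C; 2-3 technical replicates each.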

Series [2] concerns Saccharomyces cerevisiae. The series is described as above. The following applies: genetic background: wild type; temperature: 30 C.
[3] abbreviates: genetic background: cdc34-1, temperature: 37 C.
[4] abbreviates: genetic background: cdc53-1, temperature: 37 C.
[5] abbreviates: genetic background: das1 deletion, temperature: 30 C.
The mark [6] stands for this setting: genetic background: das1 deletion, temperature: 37 C.
[7] abbreviates: genetic background: doa10 deletion, temperature: 30 C.
The mark [8] stands for this setting: genetic background: wild type, temperature: 30 C.
[9] abbreviates: genetic background: wild type, temperature: 37 C.

Protein stability index data for 15 sequences are collected here from the supplement of paper PMC10724198.

± gives the standard deviation of the averaged measurements.
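Also: PSI is a weighted mean of sequencing reads over stability bins, variants kept only with over 10 reads, mCherry proximal and sfGFP distal, peptide attached via GGGS linker.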

Take GGGSASGWRAAA: the protein stability index stood at 0.665 ± 0.0097 in series [1] (setting [3]); 0.735 ± 0.015 in series [1] (setting [4]); 0.633 ± 0.0096 in series [1] (setting [5]); 0.716 ± 0.027 in series [1] (setting [6]); 0.344 ± 0.0043 in series [1] (setting [7]); 0.39 ± 0.022 in series [1] (setting [8]). In addition, the figures for the protein stability index in series [1] (setting [9]) and in series [2] were 0.639 ± 0.0072 and 0.48 ± 0.025, respectively.
As for GGKTLSIFLRIS, the protein stability index came to 0.611 ± 0.029 in series [1] (setting [3]); 0.693 ± 0.021 in series [1] (setting [4]); 0.554 ± 0.022 in series [1] (setting [5]); 0.665 ± 0.0095 in series [1] (setting [6]); 0.14 ± 0.013 in series [1] (setting [7]); 0.159 ± 0.013 in series [1] (setting [8]). The figures for the protein stability index in series [1] (setting [9]) and in series [2] were 0.295 ± 0.017 and 0.258 ± 0.0057, respectively.
For the sequence GGLVVYVWGRWS, the protein stability index in series [1] (setting [3]) worked out at 0.526 ± 0.017; in series [1] (setting [4]) it was 0.592 ± 0.025; in series [1] (setting [5]), 0.383 ± 0.016; in series [1] (setting [6]), 0.589 ± 0.009; in series [1] (setting [7]) it was 0.356 ± 0.021; in series [1] (setting [8]), 0.377 ± 0.015. Besides, the protein stability index in series [1] (setting [9]) turned out to be 0.573 ± 0.023; in series [2], 0.457 ± 0.024.
For GGLWRRLCLGVG, the protein stability index worked out at 0.4 ± 0.021 in series [1] (setting [3]); 0.4633 ± 0.0012 in series [1] (setting [4]); 0.388 ± 0.018 in series [1] (setting [5]); 0.469 ± 0.011 in series [1] (setting [6]); 0.3 ± 0.0089 in series [1] (setting [7]); 0.311 ± 0.016 in series [1] (setting [8]). Further, the protein stability index in series [1] (setting [9]) amounted to 0.453 ± 0.016; in series [2], 0.329 ± 0.041.
For GGVCVRMECWMG, the protein stability index in series [1] (setting [3]) was 0.57 ± 0.036; in series [1] (setting [4]), 0.629 ± 0.018; in series [1] (setting [5]), 0.486 ± 0.032; in series [1] (setting [6]), 0.5789 ± 0.0015; in series [1] (setting [7]) it was 0.485 ± 0.03; in series [1] (setting [8]), 0.496 ± 0.034. Also, the protein stability index is 0.5864 ± 0.0051 in series [1] (setting [9]) and 0.496 ± 0.0059 in series [2].
As for GGVVGRPWWYVG, the protein stability index in series [1] (setting [3]) is 0.694 ± 0.023; in series [1] (setting [4]), 0.79439 ± 0.00012; in series [1] (setting [5]), 0.677 ± 0.014; in series [1] (setting [6]) it was 0.795 ± 0.013; in series [1] (setting [7]), 0.266 ± 0.015; in series [1] (setting [8]), 0.301 ± 0.015. The protein stability index was determined as 0.605 ± 0.017 in series [1] (setting [9]) and 0.425 ± 0.031 in series [2].
Consider GIFVRIVCIDVA, for which the protein stability index in series [1] (setting [3]) amounted to 0.125 ± 0.0095; in series [1] (setting [4]) it was 0.183 ± 0.0066; in series [1] (setting [5]), 0.178 ± 0.032; in series [1] (setting [6]), 0.302 ± 0.007; in series [1] (setting [7]) it was 0.143 ± 0.0085; in series [1] (setting [8]), 0.165 ± 0.021. Also, the figures for the protein stability index in series [1] (setting [9]) and in series [2] were 0.2851 ± 0.0006 and 0.2651 ± 0.0024, respectively.
With GINYSNKKILVN, the protein stability index in series [1] (setting [3]) came out at 0.574 ± 0.016; in series [1] (setting [4]), 0.6729 ± 0.0015; in series [1] (setting [5]), 0.493 ± 0.027; in series [1] (setting [6]), 0.691 ± 0.026; in series [1] (setting [7]), 0.278 ± 0.022; in series [1] (setting [8]), 0.273 ± 0.033. Also, the protein stability index is 0.57 ± 0.0072 in series [1] (setting [9]) and 0.444 ± 0.059 in series [2].
For GLCSGTGARWLV, the protein stability index in series [1] (setting [3]) was determined as 0.703 ± 0.0096; in series [1] (setting [4]), 0.7667 ± 0.0022; in series [1] (setting [5]), 0.636 ± 0.027; in series [1] (setting [6]) it was 0.749 ± 0.018; in series [1] (setting [7]), 0.52 ± 0.013; in series [1] (setting [8]) it was 0.516 ± 0.0084. Further, the protein stability index in series [1] (setting [9]) is 0.701 ± 0.016; in series [2], 0.559 ± 0.086.
In the case of GLPRASPLPIPV, the protein stability index in series [1] (setting [3]) was determined as 0.553 ± 0.032; in series [1] (setting [4]), 0.591 ± 0.006; in series [1] (setting [5]), 0.447 ± 0.021; in series [1] (setting [6]) it was 0.6021 ± 0.0017; in series [1] (setting [7]) it was 0.425 ± 0.01; in series [1] (setting [8]) it was 0.443 ± 0.016. Also, the protein stability index in series [1] (setting [9]) worked out at 0.57 ± 0.0065; in series [2], 0.517 ± 0.048.
For GLRLRCPLLLSL, the protein stability index stood at 0.354 ± 0.018 in series [1] (setting [3]); 0.341 ± 0.018 in series [1] (setting [4]); 0.315 ± 0.049 in series [1] (setting [5]); 0.47 ± 0.011 in series [1] (setting [6]); 0.507 ± 0.023 in series [1] (setting [7]); 0.324 ± 0.013 in series [1] (setting [8]). The protein stability index came out at 0.425 ± 0.0045 in series [1] (setting [9]) and 0.383 ± 0.028 in series [2].
With GLSGFLLLIVLY, the protein stability index in series [1] (setting [3]) was determined as 0.194 ± 0.027; in series [1] (setting [4]), 0.256 ± 0.019; in series [1] (setting [5]), 0.239 ± 0.02; in series [1] (setting [6]), 0.417 ± 0.049; in series [1] (setting [7]) it was 0.252 ± 0.0089; in series [1] (setting [8]), 0.228 ± 0.035. The protein stability index in series [1] (setting [9]) turned out to be 0.35509 ± 0.00019; in series [2], 0.353 ± 0.026.
Consider GLWLCRGLVRAW, for which the protein stability index in series [1] (setting [3]) came out at 0.349 ± 0.026; in series [1] (setting [4]) it was 0.382 ± 0.021; in series [1] (setting [5]), 0.299 ± 0.021; in series [1] (setting [6]), 0.46 ± 0.009; in series [1] (setting [7]), 0.253 ± 0.001; in series [1] (setting [8]), 0.289 ± 0.021. The protein stability index is 0.438 ± 0.014 in series [1] (setting [9]) and 0.43 ± 0.04 in series [2].
GPFGVGALVCCM: the protein stability index is 0.462 ± 0.016 in series [1] (setting [3]); 0.4425 ± 0.00085 in series [1] (setting [4]); 0.333 ± 0.032 in series [1] (setting [5]); 0.503 ± 0.0066 in series [1] (setting [6]); 0.304 ± 0.01 in series [1] (setting [7]); 0.351 ± 0.017 in series [1] (setting [8]). The values for the protein stability index in series [1] (setting [9]) and in series [2] were 0.4844 ± 0.00066 and 0.433 ± 0.0072, respectively.
Take GPNWCSVCQGVG: the protein stability index in series [1] (setting [3]) was determined as 0.421 ± 0.03; in series [1] (setting [4]) it was 0.477 ± 0.028; in series [1] (setting [5]) it was 0.43 ± 0.011; in series [1] (setting [6]) it was 0.4926 ± 0.0034; in series [1] (setting [7]), 0.446 ± 0.0064; in series [1] (setting [8]), 0.426 ± 0.013. The protein stability index in series [1] (setting [9]) was found to be 0.4733 ± 0.00063; in series [2], 0.453 ± 0.015.
